Experimental findings from patent US20030027251 are described below.

In this series the target is bacteriophage λ cII protein (UniProt P03042).

For E. coli FtsH, the fold induction of β-galactosidase (induced/uninduced), strain SYKD005; reference SYKD004 without plasmid ftsH: 21 is 10 fold; the “fold induction of β-galactosidase, strain SYKD005” value was “the fold induction of β-galactosidase was reduced to half when cII was induced with IPTG in the presence of FtsH”; the “β-galactosidase level against arabinose used to induce FtsH, strain SYKD007” value is recorded as “in SYKD007 the level of β-galactosidase appeared to be directly correlated to the amount of arabinose used for induction”.

With “FtsH(E415A), protease-deficient mutant of FtsH”, the fold induction of β-galactosidase (induced/uninduced), strain SYKD006; reference SYKD004 without plasmid ftsH: 21 turned out to be 26 fold; the “fold induction of β-galactosidase, strain SYKD006” value is recorded as “This reduction in the expression of lacZ was not observed in the presence of FtsH (E415A)”; the “β-galactosidase level against arabinose used to induce FtsH(E415A), strain SYKD008” value is on record as “inducing the strain SYKD008 at different concentrations of arabinose did not have any effect on the levels of β-galactosidase being produced”.
